Assay results: patent US20180355043A1 (Janssen / Centocor, published 2018)

How the values were obtained:
[1] = target: T1, DR4G112: Human HLA-DQA1*01:02/DQB1*06:02 ECD with PLP peptide PLP_178-186 (human); experiment: MSD ECL; antigen coated
T1 construct: also called DQB6:02 PLP

[2] = target: T2, DR4G111: Human HLA-DQA1*01:02/DQB1*06:02 ECD with insulin peptide INS_1-15 (human); experiment: MSD ECL; antigen coated; mAb 5 µg/ml
T2 construct: also called DQB6:02

[3] = target: T3, DR4G113: Human HRA-DPA1*03/DPB1*04:01 ECD with NY-ESO peptide NY-ESO_157-169 (human); experiment: MSD ECL; antigen coated; mAb 5 µg/ml
T3 construct: also called HLA-DP; DP4:01
T3 MHC II alpha: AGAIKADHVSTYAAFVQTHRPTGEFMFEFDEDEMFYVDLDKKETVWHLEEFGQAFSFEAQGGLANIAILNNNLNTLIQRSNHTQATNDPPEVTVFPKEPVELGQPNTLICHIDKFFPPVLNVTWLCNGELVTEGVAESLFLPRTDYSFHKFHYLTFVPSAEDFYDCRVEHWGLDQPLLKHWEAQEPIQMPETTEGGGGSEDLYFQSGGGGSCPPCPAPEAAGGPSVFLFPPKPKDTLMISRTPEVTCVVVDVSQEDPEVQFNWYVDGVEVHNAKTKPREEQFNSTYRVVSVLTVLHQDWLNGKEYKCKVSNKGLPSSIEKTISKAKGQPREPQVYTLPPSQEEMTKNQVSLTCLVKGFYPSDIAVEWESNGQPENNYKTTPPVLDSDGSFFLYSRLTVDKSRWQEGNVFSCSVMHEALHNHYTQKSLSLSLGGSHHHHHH
T3 MHC II beta: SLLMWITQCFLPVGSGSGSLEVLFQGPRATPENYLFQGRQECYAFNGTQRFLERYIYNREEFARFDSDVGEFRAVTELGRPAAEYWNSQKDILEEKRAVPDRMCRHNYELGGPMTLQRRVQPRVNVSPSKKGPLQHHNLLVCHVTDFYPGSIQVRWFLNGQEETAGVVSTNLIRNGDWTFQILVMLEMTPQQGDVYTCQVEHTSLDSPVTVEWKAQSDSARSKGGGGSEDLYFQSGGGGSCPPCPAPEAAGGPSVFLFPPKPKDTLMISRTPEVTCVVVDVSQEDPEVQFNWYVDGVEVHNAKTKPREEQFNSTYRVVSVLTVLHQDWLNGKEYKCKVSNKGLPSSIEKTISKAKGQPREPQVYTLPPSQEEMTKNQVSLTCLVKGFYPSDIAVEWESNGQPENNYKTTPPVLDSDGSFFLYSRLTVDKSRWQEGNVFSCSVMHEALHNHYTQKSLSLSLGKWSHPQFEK

[4] = target: T4, DR4G92: Human HLA-DRA1*01:02/DRB1*04:01 ECD with collagen II peptide CII_257-273 (human); experiment: MSD ECL; antigen coated; protocol of Example 3
T4 construct: also called HLA-DR4 with CII_257-273
Experimental: (§1) The soluble antigens of DR, DP and DQ were coated on MSD standard plates (Meso Scale Discovery, Cat. No. L15XA-3) at 5 μg/ml at 4° C. overnight. […] Binding to DR antigens was tested with four antibody concentrations ranging from 0.04-5 μg/ml. Binding to DP and DQ antigens was tested with one concentration at 5 μg/ml. After three washes, SulfoTag anti-human/NHP Kappa secondary antibody (Meso Scale Discovery, Cat. No. D20TF-6) was added and incubated for 1 hour. After another three washes, the plates were read under MSD reader (Meso Scale Discovery), and electrochemiluminescence (ECL) was measured.
(§2) Select antibodies were further characterized for their binding to soluble HLA-DR, HLA-DQ and HLA-DP antigens in complex with various peptides which were covalently attached to the N-terminus of the beta chains.

[5] = target: T5, DR4G143: Human HLA-DRA1*01:02/DRB1*04:01 ECD_VimentineL70A (human); experiment: MSD ECL; antigen coated; protocol of Example 3
T5 construct: also called DRB1*04:01 VitL70A
Experimental: as §1, §2

[6] = target: T6, DR4G110: Human HLA-DRA1*01:02/DRB1*04:01 ECD with aggrecan peptide N1 (human); experiment: MSD ECL; antigen coated; protocol of Example 3
T6 construct: also called DRB1*04:01 Aggrecan
Experimental: as §1, §2

[7] = target: T7, DR4G86: Human HLA-DRA1*01:02/DRB1*04:01 ECD with CLIP peptide (human); experiment: MSD ECL; antigen coated; protocol of Example 3
T7 construct: also called DRB1*04:01 CLIP; HLA-DR4 ECD
Experimental: as §1, §2

[8] = target: DR4G102: Human HLA-DRA1*01:02/DRB1*01:01 ECD with collagen II peptide CII_257-273 (human); experiment: MSD ECL; antigen coated; protocol of Example 3
Experimental: as §1, §2

[9] = target: DR4G101: Human HLA-DRA1*01:02/DRB1*04:02 ECD with collagen II peptide CII_257-273 (human); experiment: MSD ECL; antigen coated; protocol of Example 3
Experimental: as §1, §2

[10] = target: DR4G98: Human HLA-DRA1*01:02/DRB1*04:02 ECD with collagen II peptide CII_1236-1249 (human); experiment: MSD ECL; antigen coated; protocol of Example 3
Experimental: as §1, §2

[11] = target: T8, DR4G96: Human HLA-DRA1*01:02/DRB1*01:01 ECD with CLIP peptide (human); experiment: MSD ECL; antigen coated; protocol of Example 3
T8 construct: also called DRB1*01:01 CLIP
Experimental: as §1, §2

[12] = target: T9, DR4G99: Human HLA-DRA1*01:02/DRB1*01:01 ECD with collagen peptide CII_1236-1249 (human); experiment: MSD ECL; antigen coated; protocol of Example 3;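 further: antibodies tested at 0.04–5 µg/ml on plate-coated soluble HLA-DR carrying peptide on the beta chain N-terminus, bound antibody detected by SulfoTag anti-human kappa secondary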
T9 construct: also called DRG99
Experimental: (§3) Select generated antibodies were characterized for their binding to soluble HLA-DR, HLA-DQ or HLA-DP antigens with various peptides attached to the N-terminus of the beta chains. […] The soluble antigens of DR, DP and DQ were coated on MSD standard plates (Meso Scale Discovery, Cat. No. L15XA-3) at 5 μg/ml at 4° C. overnight. […] Binding to DR antigens was tested with four antibody concentrations ranging from 0.04-5 μg/ml. Binding to DP and DQ antigens was tested with one concentration at 5 μg/ml. After three washes, SulfoTag anti-human/NHP Kappa secondary antibody (Meso Scale Discovery, Cat. No. D20TF-6) was added and incubated for 1 hour. After another three washes, the plates were read under MSD reader (Meso Scale Discovery), and electrochemiluminescence (ECL) was measured.
as §2

[13] = target: T10, DR4G142: Human HLA-DRA1*01:02/DRB1*03:01 ECD_VimentineL70A (human); experiment: MSD ECL; antigen coated; protocol of Example 3;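 further: antibodies tested at 0.04–5 µg/ml on plate-coated soluble HLA-DR carrying peptide on the beta chain N-terminus, bound antibody detected by SulfoTag anti-human kappa secondary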
T10 construct: also called DRB1*03:01 VitL70A
Experimental: as §3, §2

[14] = target: T11, DR4G117: Human HLA-DRA1*01:02/DRB1*03:01 ECD with Collagen II peptide CII_1236-1249 (human); experiment: MSD ECL; antigen coated; protocol of Example 3;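 further: antibodies tested at 0.04–5 µg/ml on plate-coated soluble HLA-DR carrying peptide on the beta chain N-terminus, bound antibody detected by SulfoTag anti-human kappa secondary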
T11 construct: also called DRB1*03:01 CII_1236
Experimental: as §3, §2

[15] = target: T12, DR4G97: Human HLA-DRA1*01:02/DRB1*15:01 ECD with collagen II peptide CII_1236-1249 (human); experiment: MSD ECL; antigen coated; protocol of Example 3;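 further: antibodies tested at 0.04–5 µg/ml on plate-coated soluble HLA-DR carrying peptide on the beta chain N-terminus, bound antibody detected by SulfoTag anti-human kappa secondary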
T12 construct: also called DRB1*15:01 CII_1236
Experimental: as §3, §2

[16] = target: T13, DR4G107 (HLA DPB4:01, peptide CLIP) (human); experiment: MSD ECL; antigen coated; protocol of Example 3;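 further: antibody binding to plate-coated soluble HLA class II antigens carrying peptides fused at the beta-chain N-terminus, detected with a SulfoTag anti-human Kappa secondary antibody for 1 hour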
T13 construct: extracellular domain

[17] = target: T14, DR4G108 (HLA DQB6:02, peptide CLIP) (human); experiment: MSD ECL; antigen coated; protocol of Example 3;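 further: antibody binding to plate-coated soluble HLA class II antigens carrying peptides fused at the beta-chain N-terminus, detected with a SulfoTag anti-human Kappa secondary antibody for 1 hour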
T14 construct: extracellular domain

[18] = target: T15, DR4G145 (HLA DQB2:01, peptide CLIP) (human); experiment: MSD ECL; antigen coated; protocol of Example 3;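 further: antibody binding to plate-coated soluble HLA class II antigens carrying peptides fused at the beta-chain N-terminus, detected with a SulfoTag anti-human Kappa secondary antibody for 1 hour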
T15 construct: extracellular domain

[19] = target: T16, DR4G146 (HLA DQB2:01, peptide CLIP) (human); experiment: MSD ECL; antigen coated; protocol of Example 3;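 further: antibody binding to plate-coated soluble HLA class II antigens carrying peptides fused at the beta-chain N-terminus, detected with a SulfoTag anti-human Kappa secondary antibody for 1 hour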
T16 construct: extracellular domain

B1: DR4B6 (antibody, V domains shown)
VH: QIQLVQSGPELKKPGETVKISCKASGFTFTNYGMNWVKQAPGKGLKWMGWINTYTREPTYADDFKGRFAFSLETSASTAYLQINNLKNEDTAKYFCARDITAVVPTGFDYWGQGTTLTVSS
VL: DIQMTQSPASLSVSVGETVTITCRASENIYSNLAWYRQKQGKSPQLLVFAASNLADGVPSRFSGSGSGTQYSLKINSLQSEDFGDYYCQHFWTTPWAFGGGTNLEIK
notes: also called L243 re-engineered as IgG2sigma
[1]
  binding result: no binding
[2]
  ECL signal: 282 ECL
[3]
  ECL signal: 298 ECL
[4]
  ECL signal: 608000 ECL
[5]
  ECL signal: 520000 ECL
[6]
  ECL signal: 372000 ECL
[7]
  ECL signal: 588000 ECL
[8]
  ECL signal: 693000 ECL
[9]
  ECL signal: 615000 ECL
[10]
  ECL signal: 623000 ECL
[11]
  ECL signal: 627000 ECL
[12]
  ECL signal: 672000 ECL
[13]
  ECL signal: 399000 ECL
[14]
  ECL signal: 620000 ECL
[15]
  ECL signal: 222000 ECL
[16]
  ECL signal: 133 ECL
[17]
  ECL signal: 76 ECL
[18]
  ECL signal: 473 ECL
[19]
  ECL signal: 1450 ECL

B2: DR4B5 (antibody, V domains shown)
VH: QVQLQESGPGLVKPSETLSLTCTVSGFSLTNYGVHWVRQSPGKGLEWIGVKWSGGSTEYNAAFISRLTISKDTSKNQVSLKLNSLTAADTAVYYCARNDRYAMDYWGQGTLVTVSS
VL: DIQMTQSPSSLSASVGDRVTITCRASENIYSYLAWYQQKPGKAPKLLVSNAKTLAEGVPSRFSGSGSGKQFTLTISSLQPEDFATYYCQHHYGNSYPFGQGTKLEIK
notes: also called apolizumab (1D10) re-engineered as IgG2sigma
[1]
  binding result: no binding
[2]
  ECL signal: 195 ECL
[3]
  ECL signal: 120 ECL
[4]
  ECL signal: 49000 ECL
[5]
  ECL signal: 22600 ECL
[6]
  ECL signal: 8040 ECL
[7]
  ECL signal: 7030 ECL
[8]
  ECL signal: 62500 ECL
[9]
  ECL signal: 723 ECL
[10]
  ECL signal: 469 ECL
[11]
  ECL signal: 20600 ECL
[12]
  ECL signal: 45900 ECL
[13]
  ECL signal: 1330 ECL
[14]
  ECL signal: 730 ECL
[15]
  ECL signal: 256 ECL
[16]
  ECL signal: 100 ECL
[17]
  ECL signal: 76 ECL
[18]
  ECL signal: 1360 ECL
[19]
  ECL signal: 736 ECL
